Source: the supplement of paper PMC7125110
± gives the standard error. For some of these results: This sample holds only a part of the variants without activity.

B1: glmS ribozyme (parent)
chain: AUAAAAGCGCCAGAACUACAGAAAUGUAGUUGACGAGGAGGAGGUUUAUCGAAUUUUCGGCGGAUGCCUCCAAA

Experiments:
Details in all cases: with glucosamine-6-phosphate
glucosamine-6-phosphate [1] = variants of: B1; assay: kcat; higher = faster cleavage; RNA array
Outline: (§1)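 Glucosamine-6-phosphate (40 μM to 10 mM) in HEPES/KCl/Mg(OAc)2 buffer was flowed over sequenced MiSeq chips, and tiles were imaged over ~14 h. Barcoded ribozyme variants there had been transcribed in situ by E. coli RNA polymerase and were tracked through a hybridised Cy3 probe at 37 °C. One- or two-exponential decay fits to per-tile medians, normalised to baseline and to non-cleaving reference variants, gave kobs. kcat and KM came from weighted Michaelis–Menten fits across concentrations.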

glucosamine-6-phosphate [2] = variants of: B1; assay: KM; higher = weaker cofactor use; RNA array
Outline: as §1

glucosamine-6-phosphate [3] = variants of: B1; assay: self-cleavage kobs at 40 uM GlcN6P; higher = faster cleavage; RNA array
Outline: as §1

glucosamine-6-phosphate [4] = variants of: B1; assay: self-cleavage kobs at 160 uM GlcN6P; higher = faster cleavage; RNA array
Outline: as §1

glucosamine-6-phosphate [5] = variants of: B1; assay: self-cleavage kobs at 640 uM GlcN6P; higher = faster cleavage; RNA array
Outline: as §1

glucosamine-6-phosphate [6] = variants of: B1; assay: self-cleavage kobs at 2500 uM GlcN6P; higher = faster cleavage; RNA array
Outline: as §1

glucosamine-6-phosphate [7] = variants of: B1; assay: self-cleavage kobs at 10000 uM GlcN6P; higher = faster cleavage; RNA array
Outline: as §1

| Variant | kcat (glucosamine-6-phosphate [1]) [s⁻¹] | KM (glucosamine-6-phosphate [2]) [µM] | self-cleavage kobs at 40 uM GlcN6P (glucosamine-6-phosphate [3]) [s⁻¹] | self-cleavage kobs at 160 uM GlcN6P (glucosamine-6-phosphate [4]) [s⁻¹] | self-cleavage kobs at 640 uM GlcN6P (glucosamine-6-phosphate [5]) [s⁻¹] | self-cleavage kobs at 2500 uM GlcN6P (glucosamine-6-phosphate [6]) [s⁻¹] | self-cleavage kobs at 10000 uM GlcN6P (glucosamine-6-phosphate [7]) [s⁻¹] |
| --- | --- | --- | --- | --- | --- | --- | --- |
| AUAAAAGCGCCAGCACUACAGAAAUGUAGUUGACGAGGAGGAGGUUUAUCGAAUUUUCGGCGGAUGACUCCAAA [A14C C67A] | 0.00149 ± 0.00032 | 1850 ± 600 | 3.89e-05 ± 9.3e-06 | 0.000145 ± 2.4e-05 | 0.000337 ± 4.4e-05 | 0.00079 ± 0.00013 | 0.00146 ± 0.00024 |
| AUAAAAGCGCCAGAACUACAGAAAUGUAGUUGACGAGGAGGAGAUUUAUCGAAUUUUCGGCGGAUGACUCCAAA [G44A C67A] | 0.0103 ± 0.0048 |  | 0.00024 ± 4e-05 | 0.000422 ± 0.00011 | 0.00141 ± 0.00018 | 0.00541 ± 0.00076 | 0.00737 ± 0.0013 |
| AUAAAGGCGCAAGAACUACAGAAAUGUAGUUGACGAGGAGGAGGUUUAUCGAAUUUUCGGCGGAUGCCUCCAAA [A6G C11A] | 2.52e-05 ± 7.7e-06 |  |  |  |  |  |  |
| AUAAAAGCGCCAGAACUACAGAAAUGUAGUUGACGAGGAGGAGGUUUAUCGAAUUUUCGGGGGAUGCCUCAAAA [C61G C71A] | 1.34e-05 ± 3.8e-06 |  |  |  |  |  |  |
| AUAAAAGCGCCAGAACUACAGAAAUGUAGUUGACGAGGAGGAGGUUUAUCGAAUUUUCGCCGGAUGCUUCCAAA [G60C C68U] | < 1e-05 |  |  | < 1e-05 |  |  |  |
| AUAAAAGCGCCAGUACUACAGAAAUGUAGUUGACGAGGAGGAGGGUUAUCGAAUUUUCGGCGGAUGCCUCCAAA [A14U U45G] | 0.00111 ± 0.00014 | 1850 ± 400 |  | 8.17e-05 ± 2.1e-05 | 0.00033 ± 5.4e-05 | 0.000633 ± 0.00013 | 0.000917 ± 0.00013 |
| AUAAAAGCGCCAGACCUACAGAAAUGUAGUUGACGAGGAGGAGGUUUAUCGAAUUUUGGGCGGAUGCCUCCAAA [A15C C58G] | 0.000128 ± 2.1e-05 |  |  |  | 4.09e-05 ± 1.2e-05 | 5.08e-05 ± 1.8e-05 | 0.000111 ± 1.4e-05 |
| AUAAAAGCGCCAGAACUACAGAAAUGUAGUUGACGAGGAGGAGGUUUAUCGAUUAUUCGGCGGAUGCCUCCAAA [A53U U55A] | 0.026 ± 0.012 |  | 0.000486 ± 8.9e-05 | 0.000887 ± 0.00017 | 0.00403 ± 0.00095 | 0.00891 ± 0.0017 | 0.0215 ± 0.0042 |
| AUAAAAGCGCCAGAACUACAGAAAUGUAGUGGACGAGGAGGAGGUUUAUCGAAUUUUCGGCGGAUGCCUGCAAA [U31G C70G] | 0.000132 ± 1.8e-05 | 595 ± 260 |  | 5.51e-05 ± 2.2e-05 | 6.05e-05 ± 1.2e-05 | 0.000118 ± 3.1e-05 | 0.000126 ± 1.8e-05 |
| AUAAAAGCGCCAGAACUACAGAAAUGUAGUUGACGAGGAGGAGGUUUCUCGAAUUUUCGGCGGAUUCCUCCAAA [A48C G66U] | 2.77e-05 ± 2.1e-07 | 2750 ± 61 |  |  |  |  |  |
| AUAAAAGCGCUAGAACUACAGAAAUGUAGUUGACGAGGAGGAGGUUGAUCGAAUUUUCGGCGGAUGCCUCCAAA [C11U U47G] | 0.000176 ± 3.3e-05 |  |  |  | 7.97e-05 ± 1.3e-05 | 0.000191 ± 3.3e-05 | 0.000149 ± 2.2e-05 |
| AUAAAAGCGCCAGAACUACAGAAAUGUAGUUGACGAGGAGGAGGUUUAUAGAAUAUUCGGCGGAUGCCUCCAAA [C50A U55A] | 1.62e-05 ± 1.3e-06 | 3470 ± 790 |  |  |  |  |  |
| AUAAAAACGCCAGAACUACAGAAAUGUAGUUGACGAGGAGGAGGUUUAUCGAAUUUUCGGCUGAUGCCUCCAAA [G7A G62U] | < 1e-05 |  | < 1e-05 |  | < 1e-05 |  | < 1e-05 |
| AUAAAAGCGCCGGAACUACAGAAAUGUAGUUGACGAGGAGGAGGUGUAUCGAAUUUUCGGCGGAUGCCUCCAAA [A12G U46G] | 0.000475 ± 2.8e-05 | 9040 ± 890 |  |  | 2.82e-05 ± 1.2e-05 | 0.000105 ± 1.5e-05 | 0.000248 ± 2.3e-05 |
| AUAAAAGCGCCAGAACUACAGAAAUGUAGUUGACGAGGAGGUGGUUUAUCGAAAUUUCGGCGGAUGCCUCCAAA [A42U U54A] | 0.000282 ± 2.2e-05 | 1890 ± 340 |  |  | 6.94e-05 ± 9.8e-06 | 0.000177 ± 2e-05 | 0.000231 ± 2e-05 |
| AUAAAAGCGCCAGAACUACAGAAAUGUAGUUGACGAGGUGGAGUUUUAUCGAAUUUUCGGCGGAUGCCUCCAAA [A39U G44U] | 0.00106 ± 0.00049 |  | 8.33e-05 ± 6.8e-06 | 0.000143 ± 1.3e-05 | 0.000437 ± 3e-05 | 0.000955 ± 9.3e-05 |  |
| AUAAAAGCGCCAGAACUACAGAAAUGUAGUUGGCGAGGAGGAGGUUUACCGAAUUUACGGCGGAUGCCUCCAAA [A33G U49C U57A] | 2.2e-05 ± 2.7e-06 |  |  |  |  |  |  |
| AUAAAAGCGCCAGGACUACAGAAAUGUAGUUGACGAGGAGGAGGUUUAUCAAAUUUUCGGCGGAUGCCUCCAAA [A14G G51A] | 1.48e-05 ± 1.8e-06 |  |  |  |  |  |  |
| AUAAAUGCGCCAGAACUACAGAAAUGUAGUUGACGAGGAGGAGGUGUAUCGAAUUUUCGGCGGAUGCCUCCAAA [A6U U46G] | 0.000103 ± 5.5e-06 | 7260 ± 730 |  |  |  | 2.66e-05 ± 1.1e-05 | 5.95e-05 ± 1.5e-05 |
| AUAAAAGCGCCAGAACUACAGAAAUGUAGUUGACGAGAAGGAGGUUUAUGGAAUUUUCGGCGUAUGCCUCAAAA [G38A C50G G63U C71A] | 4.03e-05 ± 1.2e-05 |  |  | 7.25e-05 ± 2.2e-05 | 4.7e-05 ± 2.1e-05 | 3.94e-05 ± 1.3e-05 |  |
| AUAAAAGCGCCAGAACUACAGAAAUGUAGUUGACGAGGAGGAGGUUUAUCUAAAUUUCGGCGGAUGCCUCCAAA [G51U U54A] | < 1e-05 |  |  |  |  |  |  |
| AUAAAAGCGCCAGAACUACAGAAAUGUAGUUGACGAGUAGGAGGUUUAUCGAAUUUUCGGGGGAUGCCUCCAAA [G38U C61G] | < 1e-05 |  |  | < 1e-05 |  |  |  |
